Measurements reported in patent US20060099648A1, “Compositions and methods for epitope mapping” (priority 2000, published 2006).

These binders were tested against Human IgG (Calbiochem; San Diego Calif.) (human) (assay: IgG displaced from peptide pin; competitor MSP1-19).

Q: With TCECT [Peptide# 75] as the binder, how does the ΔF (%) read?
A: The ΔF (%) was 12%.

Q: How did the ΔF (%) turn out when EDSGS [Peptide# 65] was run?
A: The ΔF (%) was 7%.

Q: How did the ΔF (%) turn out when NSGCF [Peptide# 15] was run?
A: The ΔF (%) was less than 5%.

Q: PDSYP [Peptide# 81] was tested. Which ΔF (%) did it give?
A: Its ΔF (%) is 9%.

Q: DSGSN [Peptide# 66] was tested. Which ΔF (%) did it give?
A: Its ΔF (%) is 9%.

Q: Which ΔF (%) does the source give for NNGGC [Peptide# 52] here?
A: Its ΔF (%) is 6%.

Q: How did the ΔF (%) turn out when EECKC [Peptide# 26] was run?
A: The ΔF (%) was less than 5%.

Q: CLLNY [Peptide# 30] was tested. Which ΔF (%) did it give?
A: Its ΔF (%) is less than 5%.

Q: For PQNSG [Peptide# 13], which ΔF (%) is on record?
A: The ΔF (%) was less than 5%.

Q: How did the ΔF (%) turn out when HQCVK [Peptide# 5] was run?
A: Its ΔF (%) is less than 5%.

Q: KITCE [Peptide# 73] was tested. Which ΔF (%) did it give?
A: The ΔF (%) was 7%.

Q: Which ΔF (%) does the source give for CKCLL [Peptide# 28] here?
A: Its ΔF (%) is less than 5%.

Q: Which ΔF (%) does the source give for YPLFD [Peptide# 84] here?
A: Its ΔF (%) is 12%.

Q: GCFRH [Peptide# 17] was tested. Which ΔF (%) did it give?
A: Its ΔF (%) is less than 5%.

Q: Which ΔF (%) does the source give for HLDER [Peptide# 21] here?
A: Its ΔF (%) is less than 5%.

Q: For TKPDS [Peptide# 79], which ΔF (%) is on record?
A: Its ΔF (%) is 11%.

Q: For TCNEN [Peptide# 48], which ΔF (%) is on record?
A: Its ΔF (%) is less than 5%.

Q: How did the ΔF (%) turn out when VENPN [Peptide# 42] was run?
A: The ΔF (%) was less than 5%.

Q: How did the ΔF (%) turn out when PNPTC [Peptide# 45] was run?
A: The ΔF (%) was less than 5%.

Q: Which ΔF (%) does the source give for NENNG [Peptide# 50] here?
A: Its ΔF (%) is 5%.

Q: CTKPD [Peptide# 78] was tested. Which ΔF (%) did it give?
A: The ΔF (%) was 10%.

Q: VKKQC [Peptide# 8] was tested. Which ΔF (%) did it give?
A: Its ΔF (%) is less than 5%.

Q: Which ΔF (%) does the source give for KCVEN [Peptide# 40] here?
A: Its ΔF (%) is less than 5%.

Q: For KKITC [Peptide# 72], which ΔF (%) is on record?
A: Its ΔF (%) is 9%.

Q: How did the ΔF (%) turn out when SQHQC [Peptide# 3] was run?
A: Its ΔF (%) is less than 5%.

Q: For CVENP [Peptide# 41], which ΔF (%) is on record?
A: The ΔF (%) was less than 5%.

Q: How did the ΔF (%) turn out when LNYKQ [Peptide# 32] was run?
A: The ΔF (%) was less than 5%.

Q: Which ΔF (%) does the source give for CECTK [Peptide# 76] here?
A: The ΔF (%) was less than 5%.

Q: How did the ΔF (%) turn out when ITCEC [Peptide# 74] was run?
A: Its ΔF (%) is 5%.

Q: With ECTKP [Peptide# 77] as the binder, how does the ΔF (%) read?
A: The ΔF (%) was 13%.

Q: For NISQH [Peptide# 1], which ΔF (%) is on record?
A: Its ΔF (%) is less than 5%.

Q: How did the ΔF (%) turn out when GDKCV [Peptide# 38] was run?
A: The ΔF (%) was less than 5%.

Q: QHQCV [Peptide# 4] was tested. Which ΔF (%) did it give?
A: Its ΔF (%) is less than 5%.

Q: Which ΔF (%) does the source give for FRHLD [Peptide# 19] here?
A: Its ΔF (%) is less than 5%.

Q: For NYKQE [Peptide# 33], which ΔF (%) is on record?
A: Its ΔF (%) is less than 5%.

Q: How did the ΔF (%) turn out when CTEED [Peptide# 62] was run?
A: The ΔF (%) was less than 5%.

Q: How did the ΔF (%) turn out when DEREE [Peptide# 23] was run?
A: Its ΔF (%) is less than 5%.

Q: Which ΔF (%) does the source give for KCLLN [Peptide# 29] here?
A: Its ΔF (%) is less than 5%.

Q: With KQEGD [Peptide# 35] as the binder, how does the ΔF (%) read?
A: The ΔF (%) was less than 5%.

Q: NPTCN [Peptide# 46] was tested. Which ΔF (%) did it give?
A: The ΔF (%) was less than 5%.

Q: How did the ΔF (%) turn out when SYPLF [Peptide# 83] was run?
A: Its ΔF (%) is 13%.

Q: How did the ΔF (%) turn out when LDERE [Peptide# 22] was run?
A: The ΔF (%) was less than 5%.

Q: For DSYPL [Peptide# 82], which ΔF (%) is on record?
A: The ΔF (%) was 9%.

Q: For GGCDA [Peptide# 54], which ΔF (%) is on record?
A: Its ΔF (%) is less than 5%.

Q: Which ΔF (%) does the source give for EGDKC [Peptide# 37] here?
A: Its ΔF (%) is less than 5%.

Q: With ISQHQ [Peptide# 2] as the binder, how does the ΔF (%) read?
A: The ΔF (%) was less than 5%.

Q: How did the ΔF (%) turn out when KQCPQ [Peptide# 10] was run?
A: Its ΔF (%) is less than 5%.

Q: NGKKI [Peptide# 70] was tested. Which ΔF (%) did it give?
A: Its ΔF (%) is 12%.

Q: For SGSNG [Peptide# 67], which ΔF (%) is on record?
A: The ΔF (%) was less than 5%.

Q: For ENNGG [Peptide# 51], which ΔF (%) is on record?
A: Its ΔF (%) is less than 5%.

Q: For CDADA [Peptide# 56], which ΔF (%) is on record?
A: Its ΔF (%) is less than 5%.

Q: With CPQNS [Peptide# 12] as the binder, how does the ΔF (%) read?
A: The ΔF (%) was less than 5%.

Q: With PTCNE [Peptide# 47] as the binder, how does the ΔF (%) read?
A: The ΔF (%) was less than 5%.

Q: For QNSGC [Peptide# 14], which ΔF (%) is on record?
A: The ΔF (%) was less than 5%.

Q: QCPQN [Peptide# 11] was tested. Which ΔF (%) did it give?
A: Its ΔF (%) is less than 5%.

Q: GKKIT [Peptide# 71] was tested. Which ΔF (%) did it give?
A: Its ΔF (%) is 6%.

Q: Which ΔF (%) does the source give for NGGCD [Peptide# 53] here?
A: The ΔF (%) was 10%.

Q: For DADAK [Peptide# 57], which ΔF (%) is on record?
A: The ΔF (%) was less than 5%.

Q: Which ΔF (%) does the source give for RHLDE [Peptide# 20] here?
A: Its ΔF (%) is less than 5%.

Q: For SNGKK [Peptide# 69], which ΔF (%) is on record?
A: The ΔF (%) was less than 5%.

Q: How did the ΔF (%) turn out when NPNPT [Peptide# 44] was run?
A: The ΔF (%) was less than 5%.

Q: For GCDAD [Peptide# 55], which ΔF (%) is on record?
A: The ΔF (%) was 7%.

Q: QEGDK [Peptide# 36] was tested. Which ΔF (%) did it give?
A: The ΔF (%) was less than 5%.

Q: For LLNYK [Peptide# 31], which ΔF (%) is on record?
A: The ΔF (%) was less than 5%.

Q: How did the ΔF (%) turn out when YKQEG [Peptide# 34] was run?
A: Its ΔF (%) is less than 5%.

Q: Which ΔF (%) does the source give for DKCVE [Peptide# 39] here?
A: The ΔF (%) was less than 5%.

Q: Which ΔF (%) does the source give for AKCTE [Peptide# 60] here?
A: The ΔF (%) was 5%.

Q: How did the ΔF (%) turn out when EEDSG [Peptide# 64] was run?
A: Its ΔF (%) is 7%.

Q: How did the ΔF (%) turn out when QCVKK [Peptide# 6] was run?
A: The ΔF (%) was less than 5%.

Q: With CFRHL [Peptide# 18] as the binder, how does the ΔF (%) read?
A: Its ΔF (%) is less than 5%.

Q: For SGCFR [Peptide# 16], which ΔF (%) is on record?
A: The ΔF (%) was less than 5%.

Q: With ECKCL [Peptide# 27] as the binder, how does the ΔF (%) read?
A: Its ΔF (%) is less than 5%.

Q: For CNENN [Peptide# 49], which ΔF (%) is on record?
A: The ΔF (%) was 16%.

Q: Which ΔF (%) does the source give for GSNGK [Peptide# 68] here?
A: The ΔF (%) was less than 5%.

Q: With DAKCT [Peptide# 59] as the binder, how does the ΔF (%) read?
A: Its ΔF (%) is less than 5%.

Q: How did the ΔF (%) turn out when REECK [Peptide# 25] was run?
A: The ΔF (%) was less than 5%.

Q: Which ΔF (%) does the source give for ENPNP [Peptide# 43] here?
A: Its ΔF (%) is less than 5%.

Q: Which ΔF (%) does the source give for CVKKQ [Peptide# 7] here?
A: Its ΔF (%) is less than 5%.

Q: How did the ΔF (%) turn out when KCTEE [Peptide# 61] was run?
A: The ΔF (%) was 6%.

Q: With KPDSY [Peptide# 80] as the binder, how does the ΔF (%) read?
A: The ΔF (%) was 11%.

Q: Which ΔF (%) does the source give for EREEC [Peptide# 24] here?
A: The ΔF (%) was less than 5%.

Q: How did the ΔF (%) turn out when TEEDS [Peptide# 63] was run?
A: The ΔF (%) was less than 5%.

Q: Which ΔF (%) does the source give for ADAKC [Peptide# 58] here?
A: The ΔF (%) was less than 5%.
